These results are taken from the supplement of paper PMC11316812.

± gives the standard deviation of the averaged measurements.

Data set [1] has as its system hTERT-HMEC. As to the kind of experiment: percentage of EdU-negative (G0-arrested) nuclei per well, 72 h; higher = more G0 arrest. The following applies: reference: sequence is the full UniProt precursor, the tested protein was the secreted form or ectodomain.
Data set [2] relates to MCF7. The data set is described as above. The following applies: reference: sequence is the full UniProt precursor, the tested protein was the secreted form or ectodomain.
[3] abbreviates: protein concentration 0.01975 µM.
Where [4] appears, read: protein concentration 0.1975 µM.
The mark [5] stands for this setting: protein concentration 0.03125 µM.
[6] abbreviates: protein concentration 0.3125 µM.
The mark [7] stands for this setting: protein concentration 0.0225 µM.
[8] abbreviates: protein concentration 0.0357143 µM.
[9] abbreviates: protein concentration 0.357143 µM.
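Note: secreted proteins added to cultured cells, EdU pulse at the end, nuclei found by Hoechst imaging, EdU status from nuclear versus surrounding ring intensity ratio, PBS as neutral control.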

“MWGLLLALAAFAPAVGPALGAPRNSVLGLAQPGTTKVPGSTPALHSSPAQPPAETANGTSEQHVRIRVIKKKKVIMKKRKKLTLTRPTPLVTAGPLVTPTPAGTLDPAEKQETGCPPLGLESLRVSDSRLEASSSQSFGLGPHRGRLNIQSGLEDGDLYDGAWCAEEQDADPWFQVDAGHPTRFSGVITQGRNSVWRYDWVTSYKVQFSNDSRTWWGSRNHSSGMDAVFPANSDPETPVLNLLPEPQVARFIRLLPQTWLQGGAPCLRAEILACPVSDPNDLFLEAPASGSSDPLDFQHHNYKAMRKLMKQVQEQCPNITRIYSIGKSYQGLKLYVMEMSDKPGEHELGEPEVRYVAGMHGNEALGRELLLLLMQFLCHEFLRGNPRVTRLLSEMRIHLLPSMNPDGYEIAYHRGSELVGWAEGRWNNQSIDLNHNFADLNTPLWEAQDDGKVPHIVPNHHLPLPTYYTLPNATVAPETRAVIKWMKRIPFVLSANLHGGELVVSYPFDMTRTPWAARELTPTPDDAVFRWLSTVYAGSNLAMQDTSRRPCHSQDFSVHGNIINGADWHTVPGSMNDFSYLHTNCFEVTVELSCDKFPHENELPQEWENNKDALLTYLEQVRMGIAGVVRDKDTELGIADAVIAVDGINHDVTTAWGGDYWRLLTPGDYMVTASAEGYHSVTRNCRVTFEEGPFPCNFVLTKTPKQRLRELLAAGAKVPPDLRRRLERLRGQKD [Q96SM3]”: the “percentage of EdU-negative” value in data set [1] (setting [3]) came out at 5.64 ± 1.2%; in data set [1] (setting [4]), 5.93 ± 0.071%; in data set [2] (setting [3]), 26.1 ± 3.2%; in data set [2] (setting [4]), 28.5 ± 1.1%.
Take “MWKRWLALALALVAVAWVRAEEELRSKSKICANVFCGAGRECAVTEKGEPTCLCIEQCKPHKRPVCGSNGKTYLNHCELHRDACLTGSKIQVDYDGHCKEKKSVSPSASPVVCYQSNRDELRRRIIQWLEAEIIPDGWFSKGSNYSEILDKYFKNFDNGDSRLDSSEFLKFVEQNETAINITTYPDQENNKLLRGLCVDALIELSDENADWKLSFQEFLKCLNPSFNPPEKKCALEDETYADGAETEVDCNRCVCACGNWVCTAMTCDGKNQKGAQTQTEEEMTRYVQELQKHQETAEKTKRVSTKEI”: the “percentage of EdU-negative” value in data set [1] (setting [5]) came out at 4.68 ± 0.16%; in data set [1] (setting [6]), 5.53 ± 0.92%; in data set [2] (setting [5]) it was 25.7 ± 0.72%; in data set [2] (setting [6]), 26.2 ± 3.6%.
With “MWLGRRALCALVLLLACASLGLLYASTRDAPGLRLPLAPWAPPQSPRRPELPDLAPEPRYAHIPVRIKEQVVGLLAWNNCSCESSGGGLPLPFQKQVRAIDLTKAFDPAELRAASATREQEFQAFLSRSQSPADQLLIAPANSPLQYPLQGVEVQPLRSILVPGLSLQAASGQEVYQVNLTASLGTWDVAGEVTGVTLTGEGQADLTLVSPGLDQLNRQLQLVTYSSRSYQTNTADTVRFSTEGHEAAFTIRIRHPPNPRLYPPGSLPQGAQYNISALVTIATKTFLRYDRLRALITSIRRFYPTVTVVIADDSDKPERVSGPYVEHYLMPFGKGWFAGRNLAVSQVTTKYVLWVDDDFVFTARTRLERLVDVLERTPLDLVGGAVREISGFATTYRQLLSVEPGAPGLGNCLRQRRGFHHELVGFPGCVVTDGVVNFFLARTDKVREVGFDPRLSRVAHLEFFLDGLGSLRVGSCSDVVVDHASKLKLPWTSRDAGAETYARYRYPGSLDESQMAKHRLLFFKHRLQCMTSQ”, the “percentage of EdU-negative” value came to 5.346 ± 0.02% in data set [1] (setting [5]), 5.55 ± 0.9% in data set [1] (setting [6]), 24.7 ± 5.6% in data set [2] (setting [5]) and 27 ± 3.4% in data set [2] (setting [6]).
On to “MWLLLTLSFLLASTAAQDGDKLLEGDECAPHSQPWQVALYERGRFNCGASLISPHWVLSAAHCQSRFMRVRLGEHNLRKRDGPEQLRTTSRVIPHPRYEARSHRNDIMLLRLVQPARLNPQVRPAVLPTRCPHPGEACVVSGWGLVSHNEPGTAGSPRSQVSLPDTLHCANISIISDTSCDKSYPGRLTNTMVCAGAEGRGAESCEGDSGGPLVCGGILQGIVSWGDVPCDNTTKPGVYTKVCHYLEWIRETMKRN [Q9H2R5]”, for which the “percentage of EdU-negative” value in data set [1] (setting [7]) stood at 5.58 ± 0.041%; in data set [1] (protein concentration 0.225 µM), 5.86 ± 1.2%; in data set [2] (setting [7]), 22.4 ± 2%; in data set [2] (protein concentration 0.225 µM), 25.76 ± 0.13%.
On the same counts, the results for “MWLLPALLLLCLSGCLSLKGPGSVTGTAGDSLTVWCQYESMYKGYNKYWCRGQYDTSCESIVETKGEEKVERNGRVSIRDHPEALAFTVTMQNLNEDDAGSYWCKIQTVWVLDSWSRDPSDLVRVYVSPAITTPRRTTHPATPPIFLVVNPGRNLSTGEVLTQNSGFRLSSPHFLLVVLLKLPLLLSMLGAVFWVNRPQWAPPGR [Q496F6]” are 5.54 ± 0.7%, 5.97 ± 1.6%, 23.3 ± 1.9% and 26.6 ± 0.81%.
On to “MWLLVSVILISRISSVGGEAMFCDFPKINHGILYDEEKYKPFSQVPTGEVFYYSCEYNFVSPSKSFWTRITCAEEGWSPTPKCLRLCFFPFVENGHSESSGQTHLEGDTVQIICNTGYRLQNNENNISCVERGWSTPPKCRSTISAEKCGPPPPIDNGDITSFLLSVYAPGSSVEYQCQNLYQLEGNNQITCRNGQWSEPPKCLDPCVISQEIMEKYNIKLKWTNQQKLYSRTGDIVEFVCKSGYHPTKSHSFRAMCQNGKLVYPSCEEK”, for which the “percentage of EdU-negative” value was determined as 5.7 ± 0.61% in data set [1] (setting [8]), 17.5 ± 3.6% in data set [1] (setting [9]), 26.5 ± 2.9% in data set [2] (setting [8]) and 27.9 ± 1.9% in data set [2] (setting [9]).
